Measurements: US5889151A (priority 1989, dated 1999)

B1: Human gamma IFN: human gamma interferon, recognized by a different receptor (protein, UniProt P01579 24-161, looked up)
Interferon gamma: QDPYVKEAENLKKYFNAGHSDVADNGTLFLGILKNWKEESDRKIMQSQIVSFYFKLFKNFKDDQSIQKSVETIKEDMNVKFFNSNKKKRDDFEKLTNYSVTDLNVQRKAIHELIQVMAELSPAAKTGKRKRSQMLFRG

Legend:
coronavirus = details: infected with a coronavirus; 37% with placebo; cited from earlier work
rhinoviruses = details: clinical trials; cited from earlier work
mouse parental BTG cells = type: cell-based
transfected 10B H7 clone = type: cell-based, mouse
human Wish cells = type: cell-based

| Molecule | volunteers developing the symptoms of a cold (coronavirus) [%] | protection of volunteers infected with different rhinoviruses (rhinoviruses) [%] | Antiviral activities of interferon preparations tested on BTG (mouse parental BTG cells) | antiviral activity (in words) (mouse parental BTG cells) | Antiviral activities of interferon preparations tested on 10BH7 (transfected 10B H7 clone) | antiviral activity (in words) (transfected 10B H7 clone) | Antiviral activities of interferon preparations tested on WISH (human Wish cells) |
| --- | --- | --- | --- | --- | --- | --- | --- |
| alpha interferon | 6 | 100 |  |  |  |  |  |
| B1 |  |  | < 1 × 10^3 units/ml | no antiviral activity | < 1 × 10^3 units/ml | no antiviral activity | 20 × 10^6 units/ml |
